Blank lines part the entries; values can stand above or below the binder they belong to.
Legend:
[1] = molecular target: T1, Recombinant protein HER3-ECD-Fc (RnD Systems) (human, UniProt P21860 20-643); experiment: SPR, Biacore T100: antibody captured on an anti-Fc CM5 chip, HER3-ECD-Fc injected as analyte
T1 construct: extracellular domain; also called Human ErbB3 ECD-Fc protein (RnD); not shown: Fc part of the bought fusion
Description: Among the hybridomas described above, two antibodies, A3 and A4, were further selected for a biochemical and functional characterization. In particular, the following assays have been performed: [0174] Bioacore analysis. Affinity for HER3 and kₒₙ/koff were determined by Surface Plasmon Resonance using a Biacore T100 instrument. A biosensor chip CM5 (GE Healthcare) was covalently bound to an anti-Fc (8000 RU) and then treated with antibodies at different concentrations (<1000 RU). Recombinant protein HER3-ECD-Fc (RnD Systems) in HBS-EP buffer at the analyte concentration 1:1 was injected for 2 minutes at 30 μl/min, followed by a 10 minutes dissociation phase. [0175] Cross-reactivity with mouse HER3 receptor and with other human ErbB receptors. […] After a wash in FACS buffer, an anti-mouse IgG conjugated with Phycoerythrin (PE, Becton Dickinson) was added and cells were analyzed by a FACSCalibur (Becton Dickinson). […] After 2 washes with PBS, 0.05% Tween20, the signal was measured by incubation with a biotinylated goat anti-NRG-1β antibody (RnD Systems) and Streptavidin conjugated with peroxidase and utilizing an HRP substrate (Pierce). Data were acquired with an ELISA reader at 450 nm. […]

HER2 = molecular target: T2, HER2 (human, UniProt P04626 23-1255); experiment: flow cytometry on transiently transfected CHO cells
T2 construct: whole, on cells; also called ErbB2

HER4 = molecular target: T3, HER4 (human, UniProt Q15303 26-1308); experiment: as above
T3 construct: whole, on cells; also called ErbB4
T3 sequence (Q15303 26-1308): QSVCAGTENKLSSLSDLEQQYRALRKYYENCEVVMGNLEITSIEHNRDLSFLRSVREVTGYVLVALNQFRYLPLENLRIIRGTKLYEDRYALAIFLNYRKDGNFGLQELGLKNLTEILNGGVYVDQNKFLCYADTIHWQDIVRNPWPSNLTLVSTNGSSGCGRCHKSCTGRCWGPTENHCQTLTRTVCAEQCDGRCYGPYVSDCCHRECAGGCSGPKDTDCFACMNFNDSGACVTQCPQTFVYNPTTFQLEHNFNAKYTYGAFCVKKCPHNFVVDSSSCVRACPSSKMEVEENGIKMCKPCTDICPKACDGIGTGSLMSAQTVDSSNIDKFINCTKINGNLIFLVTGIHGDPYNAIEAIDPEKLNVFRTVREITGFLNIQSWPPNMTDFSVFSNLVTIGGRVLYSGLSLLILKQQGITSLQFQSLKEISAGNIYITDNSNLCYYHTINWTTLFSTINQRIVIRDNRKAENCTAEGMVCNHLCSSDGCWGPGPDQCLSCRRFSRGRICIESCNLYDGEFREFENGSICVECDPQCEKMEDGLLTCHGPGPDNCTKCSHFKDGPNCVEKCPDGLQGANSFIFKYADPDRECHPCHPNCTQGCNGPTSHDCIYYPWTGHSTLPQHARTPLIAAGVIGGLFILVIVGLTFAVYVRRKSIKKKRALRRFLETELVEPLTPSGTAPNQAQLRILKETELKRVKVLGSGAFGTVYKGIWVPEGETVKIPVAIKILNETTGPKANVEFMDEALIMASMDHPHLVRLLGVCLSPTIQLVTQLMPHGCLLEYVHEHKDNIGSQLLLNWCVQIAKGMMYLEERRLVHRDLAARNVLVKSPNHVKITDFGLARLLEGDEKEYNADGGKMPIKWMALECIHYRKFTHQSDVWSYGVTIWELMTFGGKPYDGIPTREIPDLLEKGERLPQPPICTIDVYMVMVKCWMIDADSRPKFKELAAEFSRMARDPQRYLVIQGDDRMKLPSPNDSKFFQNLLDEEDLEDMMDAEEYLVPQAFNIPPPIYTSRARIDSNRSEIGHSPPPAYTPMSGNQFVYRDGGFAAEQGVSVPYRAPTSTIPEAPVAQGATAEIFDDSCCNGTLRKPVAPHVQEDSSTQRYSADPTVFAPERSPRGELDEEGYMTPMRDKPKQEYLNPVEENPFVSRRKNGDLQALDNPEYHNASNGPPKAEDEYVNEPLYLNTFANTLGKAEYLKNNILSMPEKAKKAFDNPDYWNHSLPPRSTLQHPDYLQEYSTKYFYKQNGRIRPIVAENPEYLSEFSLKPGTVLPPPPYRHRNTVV

HER1/EGFR = molecular target: T4, HER1/EGFR (human, UniProt P00533 25-1210); experiment: as above
T4 construct: whole, on cells

mouse HER3 [2] = molecular target: T5, mouse HER3 (mouse, UniProt Q61526 20-1339); experiment: flow cytometry on CHO cells transiently transfected with mouse HER3
T5 construct: whole, on cells; also called murine HER3
T5 sequence (Q61526 20-1339): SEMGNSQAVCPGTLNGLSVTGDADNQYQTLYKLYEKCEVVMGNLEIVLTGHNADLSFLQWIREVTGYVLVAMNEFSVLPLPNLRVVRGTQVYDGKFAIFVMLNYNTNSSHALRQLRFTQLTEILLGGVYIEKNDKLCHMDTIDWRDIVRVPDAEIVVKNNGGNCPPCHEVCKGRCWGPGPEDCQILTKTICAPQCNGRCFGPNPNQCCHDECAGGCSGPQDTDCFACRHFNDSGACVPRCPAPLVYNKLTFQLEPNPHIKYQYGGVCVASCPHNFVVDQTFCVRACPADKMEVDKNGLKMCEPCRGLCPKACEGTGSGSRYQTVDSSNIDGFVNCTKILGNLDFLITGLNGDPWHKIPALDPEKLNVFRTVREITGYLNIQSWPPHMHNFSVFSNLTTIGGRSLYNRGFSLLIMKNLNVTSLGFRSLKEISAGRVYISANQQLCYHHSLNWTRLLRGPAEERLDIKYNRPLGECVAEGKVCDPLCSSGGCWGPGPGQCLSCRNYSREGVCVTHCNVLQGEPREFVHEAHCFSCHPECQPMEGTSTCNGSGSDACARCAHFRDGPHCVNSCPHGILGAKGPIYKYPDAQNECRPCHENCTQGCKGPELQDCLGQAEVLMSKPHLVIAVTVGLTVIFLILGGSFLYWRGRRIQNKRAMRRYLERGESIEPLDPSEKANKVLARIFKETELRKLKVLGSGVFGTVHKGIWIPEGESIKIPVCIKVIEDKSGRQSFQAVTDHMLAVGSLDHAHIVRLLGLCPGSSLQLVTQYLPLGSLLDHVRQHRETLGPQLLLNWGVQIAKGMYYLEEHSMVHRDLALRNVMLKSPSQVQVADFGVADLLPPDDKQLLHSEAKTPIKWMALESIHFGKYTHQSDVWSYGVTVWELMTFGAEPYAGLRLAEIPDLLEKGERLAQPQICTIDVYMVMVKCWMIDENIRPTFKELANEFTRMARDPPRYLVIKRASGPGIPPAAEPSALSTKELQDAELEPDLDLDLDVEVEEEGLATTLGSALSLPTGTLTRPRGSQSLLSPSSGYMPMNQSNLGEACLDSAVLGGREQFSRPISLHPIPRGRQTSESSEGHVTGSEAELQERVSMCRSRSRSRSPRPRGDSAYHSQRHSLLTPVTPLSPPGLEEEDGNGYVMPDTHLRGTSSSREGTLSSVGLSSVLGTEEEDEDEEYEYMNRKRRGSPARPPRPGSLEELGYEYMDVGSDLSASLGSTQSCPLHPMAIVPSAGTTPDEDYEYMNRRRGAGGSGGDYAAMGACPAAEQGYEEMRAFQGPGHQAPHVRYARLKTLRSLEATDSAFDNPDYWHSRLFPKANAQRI

[3] = molecular target: T1, Recombinant protein HER3-ECD-Fc (RnD …); experiment: competition ELISA (NRG Ligand Blocking): HER3-ECD-Fc on the plate, antibody, then 10 nM NRG-1β, bound NRG detected
mouse HER3 [4] = molecular target: T5, mouse HER3; experiment: flow cytometry on CHO cells transiently transfected with mouse HER3, antibody at 10 µg/ml
[5] = molecular target: T6, human ErbB3 15mer peptide QCNGHCFGPNPNQCC (human); experiment: ELISA on plate-coated 15mer peptides, A3 at 1 µg/ml
T6 construct: One of 158 15mer peptides of human ErbB3 overlapping by 11 residues (Jerini Peptide Technologies), coated on the ELISA plate
T6 peptide: QCNGHCFGPNPNQCC
Description: To identify the epitope recognized by A3 antibody, a human ErbB3 peptide collection consisting of 158 15mer peptides overlapping by 11 residues (Jerini Peptide Technologies, Berlin, Germany) has been utilized. Each peptide was resuspended in DMSO at 40 mg/ml and diluted in sodium carbonate buffer (10 mM, pH 9.6) at 1 μg/ml in 96well plates (Nunc Maxisorp) at a volume of 100 μl/well and incubated over night at 4° C. Human ErbB3 ECD-Fc protein (RnD) and buffer coated wells were used as positive and negative controls of the assay, respectively. The day after, plates were washed with 200 μl PBS 1× pH 7.4 and blocked with PBS 5% BSA for 2 hr at room temperature. After three washes with PBS, 0.05% Tween20 (PBST), plates were incubated for 2 hours at room temperature with A3 antibody diluted at 1 μg/ml in PBST, 1% BSA for 2 hours at room temperature. Plates were then washed three times in PBST and then incubated with 1/5000 diluted goat anti-mouse IgG HRP conjugated (Abcam) for one hour. After three washing in PBST, 100 μl/well 3, 3′, 5, 5′-Tetramethylbenzidine (TMB) Liquid Substrate (Sigma) were added and the reaction stopped 20 minutes later with 50 μl/well Stop Reagent for TMB Substrate (Sigma). OD₄₅₀ was determined at an ELISA reader (Perkin Elmer).

T1 sequence (P21860 20-643): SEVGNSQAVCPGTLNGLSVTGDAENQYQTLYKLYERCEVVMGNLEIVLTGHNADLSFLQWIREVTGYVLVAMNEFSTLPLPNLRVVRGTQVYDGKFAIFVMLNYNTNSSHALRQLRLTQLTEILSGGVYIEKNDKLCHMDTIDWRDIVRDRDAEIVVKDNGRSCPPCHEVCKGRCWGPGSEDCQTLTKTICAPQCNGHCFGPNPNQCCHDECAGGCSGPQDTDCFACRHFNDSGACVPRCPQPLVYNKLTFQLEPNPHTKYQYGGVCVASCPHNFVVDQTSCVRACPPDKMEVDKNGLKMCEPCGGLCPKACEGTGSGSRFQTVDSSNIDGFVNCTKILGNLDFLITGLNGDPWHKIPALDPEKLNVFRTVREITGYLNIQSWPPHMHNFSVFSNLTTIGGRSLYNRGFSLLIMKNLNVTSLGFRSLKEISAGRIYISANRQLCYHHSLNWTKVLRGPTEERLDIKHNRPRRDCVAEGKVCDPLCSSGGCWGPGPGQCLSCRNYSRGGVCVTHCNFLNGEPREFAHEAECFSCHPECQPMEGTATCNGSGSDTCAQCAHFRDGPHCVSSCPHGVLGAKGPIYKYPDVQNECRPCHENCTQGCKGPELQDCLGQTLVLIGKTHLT

- Kd [1]: 2.4 nM
- binding result (HER2): no binding (tested: 10 µg/ml)
- binding result (HER4): no binding (tested: 10 µg/ml)
- binding result (HER1/EGFR): no binding (tested: 10 µg/ml)
- binding result (mouse HER3 [2]): no binding (tested: 10 µg/ml)
- IC50 [3]: 2.8 nM
B1: Antibody A4 (antibody, V domains shown)
VH: QVQLQQPGSELVRPGASVKLSCKASGYTFTIFWIHWVKQRPGQGLEWIGNIYPGSGGTNYDEKFKSKATLTVDTFSSTAYMQLSSLTSEDSAVYYCTRWGTGKDYWGQGTTLKVSS
VL: QIVLTQSPAIMSASPGEKVTMTCRARSSVSSSYLHWYQQKPGSSPKLWIYSTSNLALGVPARFSGSGSGTSYSLTISSVEAEDAATYYCQQYDSSPFTFGTGTKLEIKR
notes: Murine monoclonal IgG with a kappa light chain, from a hybridoma; also called murine A4; A4 monoclonal antibody

- Kd [1]: 7.4 nM
- binding result (mouse HER3 [4]): binds
- binding result (HER2): no binding (tested: 10 µg/ml)
- binding result (HER4): no binding (tested: 10 µg/ml)
- binding result (HER1/EGFR): no binding (tested: 10 µg/ml)
- binding result [5]: binds
- IC50 [3]: 1.1 nM
B2: Antibody A3 (antibody, V domains shown)
VH: QVTLKESGPGKLQPSQTLSLTCSFSGFSLSTYGMGVGWIRQPLGKGLEWLANIWWNDDKYYNSALKSRLTISKDTSNNQVFLKISSVDTADAATYYCVQIANPYWYFDVWGAGTTVTVSS
VL: DVLMTQTPLSLPVSLGDQASISCRSSQSIVHSYGNTYLEWYLQKPGQSPKLLIYRVSNRFSGVPDRFSGSGSGTDFTLKISRVEAEDLGVYYCFQGSHVPFTFGTGTKLEIKR
notes: Murine monoclonal IgG from a hybridoma of BALB/c mice immunised with HER3 H584F DNA; also called A3 monoclonal antibody

Reference: US20140017259A1 (TAKIS S R L, published 2014)
